From patent publication US20210024639A1 (AGOMAB THERAPEUTICS, published 2021)

Assays:
[1] = target: T1, native human MET on living human cells (human, UniProt P08581 25-1390); assay: flow cytometry, A549 cells
T1 construct: whole, on cells; also called Human cells (A549); HPAF-II
Procedure, shortened: (§1)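 Live-cell FACS; primary = chimeric anti-MET Ab, secondary = PE anti-hu IgG1. Pos. ctrl: ms anti-hu MET + PE anti-ms IgG1, or gt anti-ms MET + PE anti-gt IgG1. Output EMAX.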

[2] = target: T2, native mouse MET on living mouse cells (mouse, UniProt P16056 25-1379); assay: cell-based or functional assay
[3] = target: T1, native human MET on living human cells; assay: cell-based or functional assay
[4] = target: T2, native mouse MET on living mouse cells; assay: flow cytometry, MLP29 cells
Procedure, shortened: as §1

[5] = target: T3, human MET-Fc chimeric protein (R&D Systems) (human, UniProt P08581 25-932); assay: competition ELISA, hMET-Fc in solid phase, competitor 0.3 nM biotinylated hHGF
T3 construct: extracellular domain; bought (R&D Systems); also called hMET; not shown: Fc portion of human IgG1
Procedure, shortened: (§2)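 N-terminally biotinylated HGF (NHS-LC-biotin); mAbs titrated 0-120 nM against coated MET-Fc; read-out IC₅₀ (50% competition) and IMAX (max % competition at saturation).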

[6] = target: T2, native mouse MET on living mouse cells; assay: cell-based or functional assay; remark: listed apart in the source
[7] = target: T1, native human MET on living human cells; assay: cell-based or functional assay; remark: listed apart in the source
[8] = target: T4, mouse MET-Fc chimeric protein (R&D Systems) (mouse, UniProt P16056 25-929, limits assumed); assay: competition ELISA, mMET-Fc in solid phase, competitor 0.3 nM biotinylated mHGF
T4 construct: bought (R&D Systems); also called mMET; not shown: Fc
Procedure, shortened: as §2

[9] = target: human MET ECD mutant I (mutations 6, 7, 8) (human) (UniProt P08581); assay: ELISA, MET ECD mutant in solid phase, mAb 0-50 nM
[10] = target: human MET ECD mutant J (mutations 6, 7) (human) (UniProt P08581); assay: ELISA, MET ECD mutant in solid phase, mAb 0-50 nM
[11] = target: T5, human MET extracellular domain (ECD) (human, UniProt P08581 25-932); assay: ELISA, MET ECD in solid phase, mAb 0-50 nM
T5 construct: range 1-932; recombinant ECD; also called hMET; human MET ECD
Procedure: Using human MET as a template, we mutagenized each of these residues in different permutations, generating a series of MET mutants that are fully human except for specific residues, which are llama. Next, we tested the affinity of selected SEMA-binding mAbs (71D6, 71C3, 71D4, 71A3, 71G2) and PSI-binding mAbs (76H10 and 71G3) for these MET mutants by ELISA. To this end, the various MET proteins were immobilized in solid phase (100 ng/well in a 96-well plate) and then exposed to increasing concentrations of antibodies (0-50 nM) solution. […] Wild-type human MET was used as positive control.
TABLE 18 The epitopes of MET responsible for agonistic antibody binding represent residues conserved among H. sapiens, M. musculus, R. norvegicus, M. fascicularis but not among the same species and L. glama. The relevance of residues conserved among human, mouse, rat, cynomolgus monkey but not llama MET for binding to agonistic mAbs was tested by ELISA. Wild-type (WT) or mutant (MT) human MET ECD was immobilized in solid phase and exposed to increasing concentrations of mAbs in solution. […] All binding values were normalized to the WT protein and are expressed as % binding (EMAX) compared to WT MET.

[12] = target: human MET ECD mutant H (mutations 2, 4) (human) (UniProt P08581); assay: ELISA, MET ECD mutant in solid phase, mAb 0-50 nM
[13] = target: human MET ECD mutant A (mutations 1, 2, 3) (human) (UniProt P08581); assay: ELISA, MET ECD mutant in solid phase, mAb 0-50 nM
[14] = target: human MET ECD mutant D (mutations 1, 2) (human) (UniProt P08581); assay: ELISA, MET ECD mutant in solid phase, mAb 0-50 nM
[15] = target: human MET ECD mutant E (mutations 2, 3, 4) (human) (UniProt P08581); assay: ELISA, MET ECD mutant in solid phase, mAb 0-50 nM

Binder	EMAX (% relative to control) [1]	cell scattering score, MLP29, 0.001 nM [2]	cell scattering score, MLP29, 0.004 nM [2]	cell scattering score, MLP29, 0.012 nM [2]	cell scattering score, MLP29, 0.037 nM [2]	cell scattering score, MLP29, 0.111 nM [2]	cell scattering score, MLP29, 0.333 nM [2]	cell scattering score, MLP29, 1.000 nM [2]	cell scattering score, MLP29, 3.000 nM [2]	cell scattering score, MLP29, 9.000 nM [2]	cell scattering score, HPAF-II, 0.001 nM [3]	cell scattering score, HPAF-II, 0.004 nM [3]	cell scattering score, HPAF-II, 0.012 nM [3]	cell scattering score, HPAF-II, 0.037 nM [3]	cell scattering score, HPAF-II, 0.111 nM [3]	cell scattering score, HPAF-II, 0.333 nM [3]	cell scattering score, HPAF-II, 1.000 nM [3]	cell scattering score, HPAF-II, 3.000 nM [3]	cell scattering score, HPAF-II, 9.000 nM [3]	EMAX (% relative to control) [4]	further results
chimeric llama-human IgG1 mAb 71G3 (antibody, V domains shown) VH: QVQLVESGGGLVQPGGSLRVSCAASGFTFSTYYMSWVRQAPGKGLEWVSDIRTDGGTYYADSVKGRFTMSRDNAKNTLYLQMNSLKPEDTALYYCARTRIFPSGYDYWGQGTQVTVSS VL: QAVVTQEPSLSVSPGGTVTLTCGLSSGSVTTSNYPGWFQQTPGQAPRTLIYNTNSRHSGVPSRFSGSISGNKAALTIMGAQPEDEADYYCSLYPGSTTVFGGGTHLTVL	117%	0 score 0-4	0 score 0-4	0 score 0-4	1 score 0-4	2 score 0-4	4 score 0-4	4 score 0-4	4 score 0-4	4 score 0-4	0 score 0-4	0 score 0-4	1 score 0-4	2 score 0-4	3 score 0-4	4 score 0-4	4 score 0-4	4 score 0-4	4 score 0-4	116%	IMAX (maximum % competition) [5]: 63.2%; protection from staurosporine, viability EC50, MLP29 [6]: 4.85 nM; protection from staurosporine, viability EMAX, MLP29 [6]: 62.3%; protection from staurosporine, viability EC50, MCF10A [7]: 5.04 nM; protection from staurosporine, viability EMAX, MCF10A [7]: 65.2%; IMAX (maximum % competition) [8]: 62.9%; % binding (EMAX) compared to WT MET [9]: 100%; % binding (EMAX) compared to WT MET [10]: 91.2%
chimeric llama-human IgG1 mAb 76H10 (antibody, V domains shown) VH: QLQLVESGGGLVQPGGSLRVSCTASGFTFNTYYMTWVRQAPGKGLEWVSDINSGGGTYYADSVKGRFTISRDNAKNTLYLQMNSLKPEDTALYYCVRVRIWPVGYDYWGQGTQVTVSS VL: QAVVTQEPSLSVSPGGTVTLTCGLSSGSVTTSNYPGWFQQTPGQAPRTLIYNTNNRHSGVPSRFSGSISGNKAALTITGAQPEDEADYYCSLYTGSYTTVFGGGTHLTVL	130%	0 score 0-4	0 score 0-4	0 score 0-4	0 score 0-4	0 score 0-4	0 score 0-4	1 score 0-4	2 score 0-4	3 score 0-4	0 score 0-4	0 score 0-4	0 score 0-4	0 score 0-4	0 score 0-4	0 score 0-4	1 score 0-4	2 score 0-4	3 score 0-4	124%	IMAX (maximum % competition) [5]: 64.2%; protection from staurosporine, viability EC50, MLP29 [6]: > 32 nM; protection from staurosporine, viability EMAX, MLP29 [6]: 27.2%; protection from staurosporine, viability EC50, MCF10A [7]: > 32 nM; protection from staurosporine, viability EMAX, MCF10A [7]: 22.8%; IMAX (maximum % competition) [8]: 62.7%; % binding (EMAX) compared to WT MET [9]: 100%; % binding (EMAX) compared to WT MET [10]: 89%
chimeric llama-human IgG1 mAb 71G2 (antibody, V domains shown) VH: EVQLQESGGGLVQPGGSLRLSCAASGFTFSIYDMSWVRQAPGKGLEWVSTINSDGSSTSYVDSVKGRFTISRDNAKNTLYLQMNSLKPEDTAVYYCAKVYGSTWDVGPMGYGMDYWGKGTLVTVSS VL: SSALTQPSALSVSLGQTARITCQGGSLGSSYAHWYQQKPGQAPVLVIYGDDSRPSGIPERFSGSSSGGTATLTISGAQAEDEDDYYCQSTDSSGNTVFGGGTRLTVL	144%	0 score 0-4	0 score 0-4	1 score 0-4	2 score 0-4	4 score 0-4	4 score 0-4	4 score 0-4	4 score 0-4	4 score 0-4	0 score 0-4	1 score 0-4	2 score 0-4	3 score 0-4	4 score 0-4	4 score 0-4	4 score 0-4	4 score 0-4	4 score 0-4	130%	% binding (EMAX) compared to WT MET [11]: 100%; IMAX (maximum % competition) [5]: 97.8%; protection from staurosporine, viability EC50, MLP29 [6]: 1.99 nM; protection from staurosporine, viability EMAX, MLP29 [6]: 58.3%; protection from staurosporine, viability EC50, MCF10A [7]: 1.06 nM; protection from staurosporine, viability EMAX, MCF10A [7]: 64.8%; IMAX (maximum % competition) [8]: 91.9%; % binding (EMAX) compared to WT MET [12]: 40.2%; % binding (EMAX) compared to WT MET [13]: 92.1%; % binding (EMAX) compared to WT MET [14]: 114%; % binding (EMAX) compared to WT MET [15]: 41.4%
